Substrate in the data set “purified protein”: Nc1ncnc2c1ncn2[C@@H]1O[C@H](COP(=O)(O)OP(=O)(O)OP(=O)(O)O)[C@@H](O)[C@H]1O
Nature of the data set: purified protein. To be noted: co-substrate NMN, ATP 25–175 µM, HEPES/KOH pH 7.5, MgCl2, 37°C.

Substrate in data set [1]: NC(=O)c1ccc[n+]([C@@H]2O[C@H](COP(=O)(O)O)[C@@H](O)[C@H]2O)c1
As to the kind of experiment: C18-HPLC of NAD formed, nonlinear fit. In kind it is biochemical, Mus musculus. To be noted: co-substrate ATP, NMN 5–100 µM, HEPES/KOH pH 7.5, MgCl2, 37°C.

Substrate in data set [2]: Nc1ncnc2c1ncn2[C@@H]1O[C@H](COP(=O)(O)OP(=O)(O)OP(=O)(O)O)[C@@H](O)[C@H]1O
As to the kind of experiment: C18-HPLC of NAD formed, nonlinear fit. In kind it is biochemical, Mus musculus. To be noted: co-substrate NMN, ATP 25–175 µM, HEPES/KOH pH 7.5, MgCl2, 37°C. From the text: (§1) C18-HPLC of NAD formed, nonlinear fit on mNMNAT1

Substrate in data set [3]: NC(=O)c1ccc[n+]([C@@H]2O[C@H](COP(=O)(O)O)[C@@H](O)[C@H]2O)c1
As to the kind of experiment: C18-HPLC of NAD formed, nonlinear fit. Type of data set: biochemical, Mus musculus. To be noted: co-substrate ATP, NMN 5–100 µM, HEPES/KOH pH 7.5, MgCl2, 37°C.
Text: as §1
The source holds these as a separate data set.

Substrate in data set [4]: Nc1ncnc2c1ncn2[C@@H]1O[C@H](COP(=O)(O)OP(=O)(O)OP(=O)(O)O)[C@@H](O)[C@H]1O
As to the kind of experiment: C18-HPLC of NAD formed, nonlinear fit. Type of data set: biochemical, Mus musculus. As to conditions: co-substrate NMN, ATP 25–175 µM, HEPES/KOH pH 7.5, MgCl2, 37°C. From the text: (§2) C18-HPLC of NAD formed, nonlinear fit on mNMNAT3
The source holds these as a separate data set.

Substrate in data set [5]: NC(=O)c1ccc[n+]([C@@H]2O[C@H](COP(=O)(O)O)[C@@H](O)[C@H]2O)c1
As to the kind of experiment: C18-HPLC of NAD formed, nonlinear fit. In kind it is biochemical, Mus musculus. As to conditions: co-substrate ATP, NMN 5–100 µM, HEPES/KOH pH 7.5, MgCl2, 37°C.
Text: as §2
This is another data set of the same source.

B1: mNMNAT2 (Mus musculus) (protein)
chain: MTETTKTHVILLACGSFNPITKGHIQMFERARDYLHKTGRFIVIGGIVSPVHDSYGKQGLVSSRHRLIMCQLAVQNSDWIRVDPWECYQDTWQTTCSVLEHHRDLMKRVTGCILSNVNTPSMTPVIGQPQHENTQPIYQNSNVPTKPTAAKILGKVGESLSRICCVRPPVERFTFVDENANLGTVMRYEEIELRILLLCGSDLLESFCIPGLWNEADMEVIVGDFGIVVVPRDAADTDRIMNHSSILRKYKNNIMVVKDDINHPMSVVSSTKSRLALQHGDGHVVDYLSQPVIDYILKSQLYINASG
notes: predicted mass 36668 Da
As a reminder, the Km is the concentration of substrate that gives half-maximal velocity. For orientation: kcat means the number of substrate molecules converted per active site and unit of time at saturation. One may read the kcat/Km as the second-order rate constant that governs catalysis at low substrate concentration. As for B1, in the data set “purified protein”, the Km was found to be 82.0 ± 15.1 µM, the kcat is 2.33 s⁻¹ and the catalytic efficiency (kcat/Km) worked out at 30000 M⁻¹ s⁻¹. Also, in data set [1], the Km was determined as 38.5 ± 13.5 µM, the kcat was 2.87 ± 0.5 s⁻¹ and the kcat/Km amounted to 70000 M⁻¹ s⁻¹.

B2: mNMNAT1 (Mus musculus) (protein)
chain: MDSSKKTEVVLLACGSFNPITNMHLRLFELAKDYMHATGKYSVIKGIISPVGDAYKKKGLIPAHHRIIMAELATKNSHWVEVDTWESLQKEWVETVKVLRYHQEKLATGSCSYPQSSPALEKPGRKRKWADQKQDSSPQKPQEPKPTGVPKVKLLCGADLLESFSVPNLWKMEDITQIVANFGLICITRAGSDAQKFIYESDVLWRHQSNIHLVNEWITNDISSTKIRRALRRGQSIRYLVPDLVQEYIEKHELYNTESEGRNAGVTLAPLQRNAAEAKHNHSTL
notes: predicted mass 34518 Da
Consider B2, for which, in data set [2], the Km is 33.5 ± 5.1 µM, the kcat stood at 15 ± 0.7 s⁻¹ and the kcat/Km stood at 450000 M⁻¹ s⁻¹. Further, in data set [3], the Km was 25.2 ± 5.6 µM, the kcat came to 15.5 ± 1.3 s⁻¹ and the kcat/Km stood at 610000 M⁻¹ s⁻¹.

B3: mNMNAT3 (Mus musculus) (protein)
chain: MKNRIPVVLLACGSFNPITNMHLRLFEVARDHLHQTGRYQVIEGIISPVNDSYGKKDLVASHHRVAMARLALQTSDWIRVDPWESEQAQWMETVKVLRHHHRELLRSSAQMDGPDPSKTPSASAALPELKLLCGADVLKTFQTPNLWKDTHIQEIVEKFGLVCVSRSGHDPERYISDSPILQQFQHNIHLAREPVLNEISATYVRKALGQGQSVKYLLPEAVITYIRDQGLYINDGSWKGKGKTG
notes: predicted mass 29866 Da
With B3, in data set [4], the Km stood at 39.0 ± 5.9 µM, the kcat was found to be 0.74 ± 0.04 s⁻¹ and the kcat/Km is 20000 M⁻¹ s⁻¹. Moreover, in data set [5], the Km came out at 117.6 ± 4.6 µM, the kcat stood at 0.75 ± 0.02 s⁻¹ and the kcat/Km was 10000 M⁻¹ s⁻¹.

The values above are taken from paper PMC3534050, “Simultaneous Single-Sample Determination of NMNAT Isozyme Activities in Mouse Tissues” (PLoS ONE, 2012).
